Reference: US20220204592A1 (VISTERRA, published 2022)
Like-named read-outs stand apart in the source and are kept apart here.

How the values were obtained:
[1] = molecular target: T1, H1 hemagglutinin (A/Solomon Islands/3/2006) (influenza A virus A/Solomon …); assay: ELISA on coated HA, relative Kd (4-parameter fit)
[2] = molecular target: H3 hemagglutinin of H3N2 strain X-31 (influenza A virus X-31 (H3N2), UniProt P03437 17-566); assay: cell-based or functional assay
[3] = molecular target: T1, H1 hemagglutinin (A/Solomon …); assay: ELISA on coated HA, relative Kd (4-parameter fit); remark: listed apart in the source
[4] = molecular target: H5 hemagglutinin (A/Duck/MN/1525/81) (influenza A virus A/Duck/MN/1525/81 …); assay: cell-based or functional assay
[5] = molecular target: H1 hemagglutinin of H1N1 Solomon Islands (isolate not specified); assay: cell-based or functional assay
[6] = molecular target: H1 hemagglutinin (A/California/04/2009) (influenza A virus A/California/04/2009 …); assay: cell-based or functional assay
[7] = molecular target: H3 hemagglutinin (A/Fujian/411/2003) (influenza A virus A/Fujian/411/2003 …); assay: cell-based or functional assay
[8] = molecular target: H3 hemagglutinin (A/Shangdong/09/93) (influenza A virus A/Shangdong/09/93 …); assay: cell-based or functional assay
[9] = molecular target: T2, H1 hemagglutinin (A/Solomon Islands/20/1999) (influenza A virus A/Solomon …); assay: ELISA on coated HA
T2 construct: ELISA antigen

B1: Ab A18 (antibody, V domains shown)
VH: EVQLLESGGGLVKPGQSLKLSCAASGFTFTSYGMHWVRQPPGKGLEWVAVISYDGSYKYYADSVQGRFTISRDNSKNTLYLQMNSLRAEDTAVYYCAKDSRLRSLLYFEWLSQGYFNPWGAGTTLTVSS
VL: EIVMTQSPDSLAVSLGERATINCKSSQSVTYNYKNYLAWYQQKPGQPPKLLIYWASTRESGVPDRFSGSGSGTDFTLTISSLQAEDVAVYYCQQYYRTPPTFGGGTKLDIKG
Kd [1]: 0.144 nM
IC50 (RT-PCR, neutralisation) [2]: 0.4 µg/mL

B2: Ab 032 (antibody, V domains shown)
VH: QVQLLETGGGLVKPGQSLKLSCAASGFTFTSYAMHWVRQPPGKGLEWVAVVSYDGNYKYYADSVQGRFTISRDNSKNTLYLQMNSLRAEDTAVYYCAKDSRLRSLLYFEWLSQGYFNPWGQGTTLTVSS
VL: DIQMTQSPSSLSASVGDRVTITCRSSQSITFNYKNYLAWYQQKPGKAPKLLIYWGSYLESGVPSRFSGSGSGTDFTLTISSLQPEDFATYYCQQHYRTPPSFGQGTKVEIK
Kd [3]: < 0.025 nM

B3: Ab 044 (antibody, V domains shown)
VH: QVQLLETGGGLVKPGQSLKLSCAASGFTFTSYAMHWVRQPPGKGLEWVAVVSYDGNYKYYADSVQGRFTISRDNSKNTLYLQMNSLRAEDTAVYYCAKDSRLRSLLYFEWLSQGYFNPWGQGTTLTVSS
VL: DIQMTQSPSSLSASVGDRVTITCRSSQSITFDYKNYLAWYQQKPGKAPKLLIYWGSYLESGVPSRFSGSGSGTDFTLTISSLQPEDFATYYCQQHYRTPPSFGQGTKVEIK
EC50, Neutral Red (CPE inhibition) [4]: 1.5 µg/mL
EC50, Neutral Red (CPE inhibition) [5]: 1.2 µg/mL
EC50, Neutral Red (CPE inhibition) [6]: 5.1 µg/mL
EC50, Neutral Red (CPE inhibition) [7]: 0.3 µg/mL
EC50, Neutral Red (CPE inhibition) [8]: 0.6 µg/mL
Kd [9]: < 0.5 nM
